The values that follow come from patent US20170260282A1 (Janssen / Centocor, published 2017).

In experiment [1] the target is T1, Human GITR (cell surface) (human, UniProt Q9Y5U5 26-241).
T1 construct: also called hGITR; huGITR
T1 sequence: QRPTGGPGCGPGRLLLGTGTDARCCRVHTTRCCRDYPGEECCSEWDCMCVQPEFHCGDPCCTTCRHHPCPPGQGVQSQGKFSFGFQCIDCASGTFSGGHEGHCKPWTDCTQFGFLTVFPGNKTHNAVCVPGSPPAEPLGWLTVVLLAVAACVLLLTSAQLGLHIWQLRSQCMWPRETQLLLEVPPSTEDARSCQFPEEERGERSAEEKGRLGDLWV
Description: flow cytometry, transiently transfected HEK293F cells, 0.1 mg/mL antibody. (In general: A flow cytometer gives signals particle by particle.)

Experiment [2] has as its target T2, Cyno GITR (cell surface) (cynomolgus monkey).
T2 construct: Presented on transfected or transduced HEK293 cells; also called cynomolgus monkey GITR
T2 chain: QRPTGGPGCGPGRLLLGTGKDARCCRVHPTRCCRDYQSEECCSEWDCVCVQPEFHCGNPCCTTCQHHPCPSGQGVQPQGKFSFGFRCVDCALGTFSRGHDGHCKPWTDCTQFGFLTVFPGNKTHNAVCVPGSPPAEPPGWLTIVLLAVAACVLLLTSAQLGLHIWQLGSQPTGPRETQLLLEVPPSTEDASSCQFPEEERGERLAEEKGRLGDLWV
The experiment is described as above.

The target in experiment [3] is T1, Human GITR (cell surface). Briefly: cell-based or functional assay.
In experiment [4] the target is T2, Cyno GITR (cell surface). Briefly: cell-based or functional assay.
For another experiment, the target named is T3, cyno GITR ECD (cynomolgus monkey).
T3 construct: Only the extracellular domain stood in the SPR assay
T3 chain: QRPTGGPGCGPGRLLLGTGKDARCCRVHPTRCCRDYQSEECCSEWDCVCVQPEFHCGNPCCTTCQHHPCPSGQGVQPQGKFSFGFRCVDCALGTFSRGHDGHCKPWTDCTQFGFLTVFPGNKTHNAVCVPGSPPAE
Description: SPR (ProteOn XPR36), mAb captured by anti-human Fc, GITR ECD as analyte, 25 °C. As for the experimental part:
(§1) The affinities of the GITR antibodies to recombinant human GITR ECD were measured by Surface Plasmon Resonance (SPR) using a ProteOn XPR36 protein interaction array system (BioRad).
(§2) The rates of GITR ECD association and dissociation were measured for each variant. The biosensor surface was prepared by covalently coupling Goat anti-Human IgG (Fc) to the surface of a GLC chip (BioRad) using the manufacturer instructions for amine-coupling chemistry. Approximately 8800 RU (response units) of Goat anti-Human IgG (Fc) antibody (Jackson ImmunoResearch laboratories Prod #109-005-098) were immobilized. […] Since the mixture was 1:1 about 50% of these RU immobilized are expected to be goat anti-human Fc. The binding kinetics experiments were performed at 25° C. in running buffer (PBS pH 7.4, 0.005% P20, 3 mM EDTA). […] (1:3) serial dilutions of human GITR ECD or cyno GITR ECD starting at 100 nM were prepared in running buffer. […] The reference spots (Goat anti-Human IgG (Fc)-modified surface) containing no candidate captured were used as a reference surface. Capture of mAb was followed by 3 min injection (association phase) of antigen at 40 μL/min, followed by 10 min of buffer flow (dissociation phase). The chip surface was regenerated by injection of 0.85% phosphoric acid at 100 μL/min. Data were processed on the instrument software. Double reference subtraction of the data was performed by subtracting the curves generated by buffer injection from the reference-subtracted curves for analyte injections. Kinetic analysis of the data was performed using 1:1 Langmuir binding model with group fit. The result for each mAb was reported in the format of kon or on-rate, koff or off-rate, and KD (Equilibrium dissociation constant) (Table 7).

Experiment [5] addresses T4, recombinant human GITR ECD (human, UniProt Q9Y5U5 26-161).
T4 construct: also called human GITR extracellular domain
T4 sequence: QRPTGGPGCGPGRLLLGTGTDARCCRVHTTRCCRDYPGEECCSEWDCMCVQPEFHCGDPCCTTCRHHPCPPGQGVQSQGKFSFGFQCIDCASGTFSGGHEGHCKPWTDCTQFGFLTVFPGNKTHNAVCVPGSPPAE
Described as above. As for the experimental part:
as §1, §2

B1: TRGB144 (antibody, human IgG1, kappa, V domains shown)
VH: QVQLVQSGAEVKKPGSSVKVSCKASGGTFSSYAISWVRQAPGQGLEWMGGIIPIFGTANYAQKFQGRVTITADESTSTAYMELSSLRSEDTAVYYCARHGFQRGYLDYWGQGTLVTVSS
VL: EIVLTQSPATLSLSPGERATLSCRASQSVSSYLAWYQQKPGQAPRLLIYDASNRATGIPARFSGSGSGTDFTLTISSLEPEDFAVYYCQQRSNWPLTFGQGTKVEIKR
notes: human IgG1/kappa
For B1, the binding result (in experiment [1]; with Cyno GITR (cell surface) [2]) was “binds” throughout.

B2: TRGB20 (antibody, human IgG1, kappa, V domains shown)
VH: EVQLLESGGGLVQPGGSLRLSCAASGFTFSGYWMNWVRQAPGKGLEWVSGISSDGGSKYYADSVKGRFTISRDNSKNTLYLQMNSLRAEDTAVYYCAKEVVYDHYAALDYWGQGTLVTVSS
VL: EIVLTQSPATLSLSPGERATLSCRASQSVNSFLAWYQQKPGQAPRLLIYYASNRATGIPARFSGSGSGTDFTLTISSLEPEDFAVYYCQQYIRWPLTFGQGTKVEIKR
notes: human IgG1/kappa
On to B2, for which the binding result (in experiment [1]; with Cyno GITR (cell surface) [2]) was “binds” in each case.

B3: TRGB31 (antibody, human IgG1, kappa, V domains shown)
VH: EVQLVQSGAEVKKPGESLKISCKGSGYSFTSYWIGWVRQMPGKGLEWMGIIDPSDSDTRYSPSFQGQVTISADKSISTAYLQWSSLKASDTAMYYCARVFPYYGLVLDYWGQGTLVTVSS
VL: EIVLTQSPATLSLSPGERATLSCRASQSVSSYLAWYQQKPGQAPRLLIYDASNRATGIPARFSGSGSGTDFTLTISSLEPEDFAVYYCQQRSNWPLTFGQGTKVEIKR
notes: human IgG1/kappa
Regarding B3, the binding result with Cyno GITR (cell surface) [2] is recorded as “binds”. For the same molecule, the “ADCC EC50, HEK293-hGITR target cells, NK-92 FcγRIIIa 176V/V effector cells” value (“ADCC EC50, HEK293-hGITR target cells” below) in experiment [3] was 7.6 ng/mL.

B4: TRGB14 (antibody, human IgG1, kappa, V domains shown)
VH: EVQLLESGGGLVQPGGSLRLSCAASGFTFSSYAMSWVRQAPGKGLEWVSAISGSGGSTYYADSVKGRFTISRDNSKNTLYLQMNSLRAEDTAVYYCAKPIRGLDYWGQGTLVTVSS
VL: EIVLTQSPATLSLSPGERATLSCRASQSVNNFLAWYQQKPGQAPRLLIYDASNRATGIPARFSGSGSGTDFTLTISSLEPEDFAVYYCQQGFNAPLTFGQGTKVEIKR
notes: human IgG1/kappa
Take B4: the binding result (in experiment [1]; in the experiment with Cyno GITR (cell surface) [2]) was “binds” throughout.

B5: TRGB23 (antibody, human IgG1, kappa, V domains shown)
VH: QVQLVQSGAEVKKPGSSVKVSCKASGGTFSSYAISWVRQAPGQGLEWMGGIIPIFGTANYAQKFQGRVTITADESTSTAYMELSSLRSEDTAVYYCARHGNWLHFNLDYWGQGTLVTVSS
VL: EIVLTQSPATLSLSPGERATLSCRASQSVSSYLAWYQQKPGQAPRLLIYDASNRATGIPARFSGSGSGTDFTLTISSLEPEDFAVYYCQQRSNWPLTFGQGTKVEIKR
In the case of B5, the “ADCC EC50, HEK293-hGITR target cells” value in experiment [3] turned out to be 4.4 ng/mL. For the same molecule, the “ADCC EC50, HEK293-cyno GITR target cells, NK-92 FcγRIIIa 176V/V effector cells” value in the experiment with Cyno GITR (cell surface) [4] was 10.2 ng/mL.

B6: TRGB120 (antibody, human IgG1, kappa, V domains shown)
VH: QVQLVQSGAEVKKPGSSVKVSCKASGGTFSSYAISWVRQAPGQGLEWMGGIIPIFGTANYAQKFQGRVTITADESTSTAYMELSSLRSEDTAVYYCARPRRNTNELDYWGQGTLVTVSS
VL: not shown
notes: human IgG1/kappa
With B6, the binding result (in experiment [1]; with Cyno GITR (cell surface) [2]) was “binds” throughout.

B7: TRGB34 (antibody, human IgG1, kappa, V domains shown)
VH: EVQLVQSGAEVKKPGESLKISCKGSGYSFTSYWIGWVRQMPGKGLEWMGIIYPGDSDTRYSPSFQGQVTISADKSISTAYLQWSSLKASDTAMYYCARDYGWHDFDYWGQGTLVTVSS
VL: EIVLTQSPATLSLSPGERATLSCRASQSVSSYLAWYQQKPGQAPRLLIYDASNRATGIPARFSGSGSGTDFTLTISSLEPEDFAVYYCQQRSNWPLTFGQGTKVEIKR
notes: human IgG1/kappa
Consider B7, for which the binding result with Cyno GITR (cell surface) [2] is on record as “binds”. The “ADCC EC50, HEK293-hGITR target cells” value in experiment [3] worked out at 5.8 ng/mL.

B8: TRGB162 (antibody, human IgG1, kappa, V domains shown)
VH: QVQLVQSGAEVKKPGSSVKVSCKASGGTFSSYAISWVRQAPGQGLEWMGGIIPIFGNANYAQKFQGRVTITADESTSTAYMELSSLRSEDTAVYYCARHVYKRGVLNYWGQGTLVTVSS
VL: EIVLTQSPATLSLSPGERATLSCRASQSVSSYLAWYQQKPGQAPRLLIYDASNRATGIPARFSGSGSGTDFTLTISSLEPEDFAVYYCQQRSNWPLTFGQGTKVEIKR
notes: human IgG1/kappa
Consider B8, for which the binding result (in experiment [1]; with Cyno GITR (cell surface) [2]) was “binds” in each case.

B9: TRGB5 (antibody, human IgG1, kappa, V domains shown)
VH: EVQLLESGGGLVQPGGSLRLSCAASGFTFSGYWMSWVRQAPGKGLEWVSAISGSGGSTYYADSVKGRFTISRDNSKNTLYLQMNSLRAEDTAVYYCAKDFYWDAFDYWGQGTLVTVSS
VL: EIVLTQSPATLSLSPGERATLSCRASQSVSSYLAWYQQKPGQAPRLLIYDASNRATGIPARFSGSGSGTDFTLTISSLEPEDFAVYYCQQRSNWPLTFGQGTKVEIKR
notes: human IgG1/kappa
As for B9, the binding result (in experiment [1]; with Cyno GITR (cell surface) [2]) was “binds” each time.

B10: TRGB35 (antibody, human IgG1, kappa, V domains shown)
VH: EVQLVQSGAEVKKPGESLKISCKGSGYSFTSYWISWVRQMPGKGLEWMGIIDPGDSDTRYSPSFQGQVTISADKSISTAYLQWSSLKASDTAMYYCARHRWSTSLLLDYWGQGTLVTVSS
VL: EIVLTQSPATLSLSPGERATLSCRASQSVSSYLAWYQQKPGQAPRLLIYDASNRATGIPARFSGSGSGTDFTLTISSLEPEDFAVYYCQQRSNWPLTFGQGTKVEIKR
notes: human IgG1/kappa
As to B10, the binding result (in experiment [1]; with Cyno GITR (cell surface) [2]) was “binds” in each case.

B11: TRGB159 (antibody, human IgG1, kappa, V domains shown)
VH: QVQLVQSGAEVKKPGSSVKVSCKASGGTFSSYAISWVRQAPGQGLEWMGGIIPIFGTANYAQKFQGRVTITADESTSTAYMELSSLRSEDTAVYYCARHGRNSGRLDYWGQGTLVTVSS
VL: EIVLTQSPATLSLSPGERATLSCRASQSVSSYLAWYQQKPGQAPRLLIYDASNRATGIPARFSGSGSGTDFTLTISSLEPEDFAVYYCQQRSNWPLTFGQGTKVEIKR
notes: human IgG1/kappa
B11: in experiment [3], the “ADCC EC50, HEK293-hGITR target cells” value is 2.9 ng/mL and the “ADCC EC50, HT1080-hGITR target cells, NK-92 FcγRIIIa 176V/V effector cells” value worked out at 6.7 ng/mL. Also, the “ADCC EC50, HEK293-cyno GITR target cells, NK-92 FcγRIIIa 176V/V effector cells” value in the experiment with Cyno GITR (cell surface) [4] amounted to 25.8 ng/mL. Further, in the experiment with cyno GITR ECD, binding was put at a Kd of 10.6 nM; the koff (usually the rate constant with which the complex falls apart) was 0.00197 s⁻¹; the kon – broadly, a measure of how fast the partners come together – was determined as 185000 M⁻¹ s⁻¹. Moreover, in experiment [5], the Kd – broadly, the concentration at which binding is half-saturated – is 3.04 nM; the koff was determined as 0.00162 s⁻¹; the kon amounted to 532000 M⁻¹ s⁻¹.

B12: TRGB134 (antibody, human IgG1, kappa, V domains shown)
VH: QVQLVQSGAEVKKPGSSVKVSCKASGGTFSSYAISWVRQAPGQGLEWMGGIIPIFGTANYAQKFQGRVTITADESTSTAYMELSSLRSEDTAVYYCARHRWGSGNLDYWGQGTLVTVSS
VL: EIVLTQSPATLSLSPGERATLSCRASQSVSSYLAWYQQKPGQAPRLLIYDASNRATGIPARFSGSGSGTDFTLTISSLEPEDFAVYYCQQRSNWPLTFGQGTKVEIKR
notes: human IgG1/kappa
As to B12, the binding result (in experiment [1]; in the experiment with Cyno GITR (cell surface) [2]) was “binds” in each case.
